Experimental findings from patent US20230329245A1, “COMPOSITIONS AND METHODS OF USE THEREOF” (Curie Co. Inc., priority 2020, published 2023) are described below.

“And” between values parts separate entries of the source, which are not always exact repeats. Equal values may be shown once.

Format in all cases: cell-based
One assay relates to P. aeruginosa ATCC 9027. The assay is described as follows: MIC determination, P. aeruginosa. The following applies: CAMHB pH 7.3, 37° C., 18 to 20 hours, duplicate. The protocol:
(§1) A variant form of Streptomyces mobaraensis transglutaminase having the amino acid sequence depicted in SEQ ID NO:6 was prepared by literature methods with a hexa-his-tag to aid in purification (Javitt, et al. (2017) BMC Biotechnol. 17:23). The cells were grown in shake flasks, lysed by homogenization, and the Tgase variant (SEQ ID NO:6) was isolated from the cell debris by centrifugation. The resulting semi-purified enzyme (clarified lysate) were compared on an SDS-PAGE gel, by spectroscopy, and activity for concentration of active enzyme. The Tgase variant (SEQ ID NO:6) was further purified by affinity column on a Ni-IMAC resin prior to MIC assay. Tgase activity was measured in the examples herein using a colorimetric hydroxamate activity assay (Folk and Cole (1965) J Biol Chemistry 240(7):2951-2960). The enzyme was diluted to a working stock concentration of 2 mg/mL in CAMHB or RPMI media (bacterial or fungal media). This was then 2-fold serial diluted ten times in the appropriate media in a 96-well master plate to generate 2× starting concentrations for MIC testing.
(§2) Strains were acquired from the American Type Culture Collection (ATCC) (Manassas, VA) and maintained as −80° C. frozen glycerol stocks: S. aureus ATCC 6538, E. coli ATCC 8739, P. aeruginosa ATCC 9027, C. albicans ATCC 10231, and A. brasiliensis ATCC 16404. B. subtilis BGSC 1A1276 was purchased from the Bacillus Genetic Stock Center (BGSC) (Columbus, OH) and maintained as −80° C. frozen glycerol stock. Cation-adjusted Mueller-Hinton broth (CAMHB) at pH 7.3 was used for testing with bacterial species (unless otherwise noted), while RPMI 1640 media buffered with 0.165 M MOPS at pH 7.0 was used for testing with all fungal species.
For MIC determination, bacterial strains (S. aureus ATCC 6538, E. coli ATCC 8739, P. aeruginosa ATCC 9027) were grown overnight on Tryptic Soy Agar (TSA) plates at 37° C. A few colonies of each strain were collected with a sterile swab and used to make a McFarland 0.5 standard solution (approximately 1×10^8 CFU/mL) in sterile PBS. […]

The subject of assay [1] is C. parapsilosis ATCC 22019. The assay is described as follows: Minimum fungicidal concentration (MFC), C. parapsilosis. The following applies: no colonies recovered, duplicate, listed as Tgase variant (SEQ ID NO: 6).
The test system of a further assay is B. subtilis BGSC 1A1276. The assay is described as follows: MIC determination, B. subtilis. Conditions: duplicate, listed as Tgase variant (SEQ ID NO: 6). The protocol:
as §1
Strains were acquired from the American Type Culture Collection (ATCC) (Manassas, VA) and maintained as −80° C. frozen glycerol stocks: S. aureus ATCC 6538, E. coli ATCC 8739, P. aeruginosa ATCC 9027, C. albicans ATCC 10231, and A. brasiliensis ATCC 16404. […]

Assay [2] has as its system A. brasiliensis ATCC 16404. The assay is described as follows: MIC determination, A. brasiliensis. The following applies: RPMI 1640 pH 7.0, 25° C., up to 7 days, duplicate. The protocol:
as §1, with “testing. […]” for “testing.”
C. albicans MIC 96-well plate was incubated for 37° C. for 24 to 48 hours. […] After incubation, all 96-well plates were examined visually and on a spectrophotometer at absorbance OD650. […]

A further assay deals with C. albicans ATCC 10231. The assay is described as follows: Minimum fungicidal concentration (MFC), C. albicans. The following applies: no colonies recovered on SDA, duplicate, listed as Tgase variant (SEQ ID NO: 6). The protocol: Minimum fungicidal concentration (MFC) was determined by plating 10 microliters of liquid from each MFC test solution on the appropriate agar media for each test strain. The liquid was allowed to air dry in a biosafety cabinet, then the agar plates were incubated under the appropriate conditions: A. brasiliensis and C. albicans were grown on Sabouraud Dextrose Agar (SDA) plates. A. brasiliensis was grown at 25° C. for 5 to 7 days, while C. albicans was grown at 37° C. for 24 to 48 hours. Colony formation was then assessed. MFC is defined as the lowest concentration of the Tgase (SEQ ID NO:6) in which no colonies were recovered.

Another assay relates to E. coli ATCC 8739. The assay is described as follows: MIC determination, E. coli. The following applies: CAMHB pH 7.3, 37° C., 18 to 20 hours, duplicate. The protocol:
as §1, §2
For MIC determination, bacterial strains (S. aureus ATCC 6538, E. coli ATCC 8739, P. aeruginosa ATCC 9027) were grown overnight on Tryptic Soy Agar (TSA) plates at 37° C. A few colonies of each strain were collected with a sterile swab and used to make a McFarland 0.5 standard solution (approximately 1×10^8 CFU/mL) in sterile PBS. The McFarland solution was then diluted 1:100 in CAMHB to generate the inoculum, and 50 μL of this inoculum was combined with 50 μL of the 2× test article in a 96-well plate for a final concentration of 1×. All test conditions were performed in duplicate. The bacterial-strain MIC 96-well plates were incubated at 37° C. for 18 to 20 hours. MIC is defined as the lowest concentration of a compound in which no visible growth is observed.

Assay [3] deals with C. parapsilosis ATCC 22019. The assay is described as follows: MIC determination, C. parapsilosis. Conditions: duplicate, listed as Tgase variant (SEQ ID NO: 6).

As usually defined, the MIC is the smallest concentration in the dilution series that meets the test's criterion for growth inhibition. A lower MIC goes with inhibition by little substance. A word on the MFC: it is the lowest tested concentration that kills the fungus rather than only halting it.

B1: Tgase (SEQ ID NO: 6): variant Streptomyces mobaraensis transglutaminase (SEQ ID NO:2) with N-terminal Methionine, C-terminal peptide linker and hexa-His-Tag (protein)
chain: MDPDDRVTPPAEPLDRMPDPYRPSYGRAETVVNNYIRKWQQVYSHRDGRKQQMTEEQREWLSYGCVGVTWVNSGQYPTNRLAFASFDEDRFKNELKNGRPRSGETRAEFEGRVAKESFDEEKGFQRAREVASVMNRALENAHDESAYLDNLKKELANGNDALRNEDARSPFYSALRNTPSFKERNGGNHDPSRMKAVIYSKHFWSGQDRSSSADKRKYGDPDAFRPAPGTGLVDMSRDRNIPRSPTSPGEGFVNFDYGWFGAQTEADADKTVWTHGNHYHAPNGSLGAMHVYESKFRNWSEGYSDFDRGAYVITFIPKSWNTAPDKVKQGWPLEHHHHHH
As for B1, the MIC in the assay with P. aeruginosa ATCC 9027 was >1,000 μg/mL; in the assay on B. subtilis BGSC 1A1276, 80 µg/mL and 120 µg/mL; in assay [2], 62.5 µg/mL; against E. coli ATCC 8739, >1,000 μg/mL; in assay [3], 250 µg/mL and 125 µg/mL. For the same molecule, the MFC is 250 µg/mL and 125 µg/mL in assay [1]; 31.25 µg/mL and 62.5 µg/mL with C. albicans ATCC 10231.
